Legend:
[1] = molecular target: T4SS_(3-10) complex of plasmid R388 (TrwM/VirB3 to TrwE/VirB10) (conjugative plasmid R388); assay: cysteine labelling with Alexa Fluor 633 C5 maleimide and fluorescence of SDS-PAGE bands; co-purified T4SS3-10+D4 complex denatured in 1% SDS, reduced with TCEP, labelled; band of TrwE (14 copies) as reference; three independent preparations
[2] = molecular target: the molecule itself; assay: negative stain electron microscopy structure; co-purified T4SS3-10+D4 complex from the ΔtrwD/virB11 construct, cross-linked with 0.1% glutaraldehyde on a 10-30% sucrose gradient (GraFix); 2% uranyl acetate; reconstruction of the inner membrane complex, C2 symmetry, 28 Å

Which stoichiometry N (TrwB subunits per complex) [1] does the source give for “TrwB/VirD4 coupling protein of plasmid R388, N-terminally His-tagged (from UniProt Q04230 1-507) (natural protein)” here?
Its stoichiometry N (TrwB subunits per complex) is 4.5.

B1: TrwB/VirD4 coupling protein of plasmid R388, N-terminally His-tagged (natural protein, conjugative plasmid R388, UniProt Q04230 1-507, looked up)
chain: MHPDDQRKVSAGIVIVLPLIFWITAVQKTEVLGSPKLLALWELMKLTPQKPILLLSALGGLAVGVLFVWLLNSVGQGEFGGAPFKRFLRGTRIVSGGKLKRMTREKAKQVTVAGVPMPRDAEPRHLLVNGATGTGKSVLLRELAYTGLLRGDRMVIVDPNGDMLSKFGRDKDIILNPYDQRTKGWSFFNEIRNDYDWQRYALSVVPRGKTDEAEEWASYGRLLLRETAKKLALIGTPSMRELFHWTTIATFDDLRGFLEGTLAESLFAGSNEASKALTSARFVLSDKLPEHVTMPDGDFSIRSWLEDPNGGNLFITWREDMGPALRPLISAWVDVVCTSILSLPEEPKRRLWLFIDELASLEKLASLADALTKGRKAGLRVVAGLQSTSQLDDVYGVKEAQTLRASFRSLVVLGGSRTDPKTNEDMSLSLGEHEVERDRYSKNTGKHHSTGRALERVRERVVMPAEIANLPDLTAYVGFAGNRPIAKVPLEIKQFANRQPAFVEGTI
notes: TrwB (VirD4 homologue), coupling protein encoded by the conjugative plasmid R388; whole gene cloned after trwD/virB11; theoretical molecular weight with 10 additional histidines 57 kDa; Inner membrane protein; also called His trwB_(/virD4); source: detergent-solubilised membranes; co-purified (Strep column, HisTrap); not shown: His10, N-terminal, kept
How did the “stoichiometry N” value [2] turn out when B1 was run?
Its value is 2 TrwB molecules in each region of density.

Reference: paper PMC5916273, “Structure of a VirD4 coupling protein bound to a VirB type IV secretion machinery” (The EMBO Journal, 2017)
